Assay results published in US20200102398A1 (Amgen, published 2020).

T1: soluble BCMA (sBCMA) (human, UniProt Q02223 1-54)
T1 construct: also called BCMA ECD; Biotinylated BCMA
T1 sequence: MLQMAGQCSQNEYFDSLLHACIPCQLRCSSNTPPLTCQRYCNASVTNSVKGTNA

B1: sBCMA-mAb3 (antibody, V domains shown)
VH: QEQLEESGGGLVKPGGTLTLTCKASGMDFSSYYYMCWVRQAPGKGLEWIACIFSDSGGHTAYASWAEGRFTISKTSSTTVTLQMTSLTVADTATYFCARDRRDVVYIRDLWGPGTLVTVSS
VL: ALVMTQTPSPVSAAVGGTVTISCQSSESVYNNNALAWYQQKPGQPPKLLIYGASSLASGVPSRFKGSGSGTQFTLTISDLECDDAATYYCAGYKRYNNDGHAFGGGTEVVVKG
notes: Rabbit monoclonal IgG; also called rabbit monoclonal anti-sBCMA-mAb3
B2: sBCMA-mAb1 (antibody, V domains shown)
VH: QSLEESGGDLVKPGAFLTLTCTASGFSFSSGYYICWVRQAPGKGLEWIACIYTGSSGSTDYASWAKGRFTISKTSSTTVTLQMTSLTAADTATYFCARDYGHSYWNLWGPGTLVTVSS
VL: DIVMTQTPASVEAAVGGTVTIKCQASEDISSRLAWYQQKPGQPPKLLIGAASTLASGVSSRFKGSRSGTEYTLTISDLECADAATYYCLGDYYVSSYGNAFGGGTEVVVKG
notes: Rabbit monoclonal IgG, used as purified recombinant antibody; also called rabbit monoclonal anti-sBCMA antibody sBCMA-mAb1; sBCMA-mAbl
B3: sBCMA-mAb2 (antibody, V domains shown)
VH: QSLEESGGDLVKPGASLTLTCTASGFSFSSSYWICWVRQAPGKGLEWIACIYAGSGDFTYYASWAKGRFTVSKTSSTTVTLQMTSLTAADTATYFCARDAATSYYSHYFTLWGPGTLVTVSS
VL: DVVMTQTPASVSEPVGGTVTIKCQASQSIYSGLAWYQQKPGQPPKLLIYDASDLASGVPSRFSGSGYGTEFTLTISGVQCEDAATYYCQVTHYESGVPLGGGTEVVVEG
notes: Rabbit monoclonal IgG; also called rabbit monoclonal anti-sBCMA antibody sBCMA-mAb2

Legend:
soluble BCMA (sBCMA) = target: T1, soluble BCMA (sBCMA); experiment: SPR (Biacore 3000, 25 C); mAb captured on goat anti-rabbit IgG Fc, sBCMA as analyte; 1:1 Langmuir with mass transfer
Experimental: Experiments were performed using a Biacore 3000 (GE Healthcare) at 25° C. The running buffer was HBS-P (10 mM HEPES, pH7.4, 150 mM NaCl, 0.05% Surfactant P-20)+0.1% BSA, and kinetics were performed at a high flowrate (100 μl/min). 10 mM Glycine, pH 1.7 was used for regeneration.
Surface preparation: A goat anti-rabbit IgG Fc (Prod. #111-005-046 from Jackson Research) was diluted 1/20 in NaAcetate, pH 5 and covalently coupled to the sample and reference Fc (Fc 1) of a CMS sensor chip using amine coupling. Individual mAbs were diluted in HBS-P+0.1% BSA and captured on either Fc 2, 3, or 4 at 0.3 μg/ml for kinetic analysis of binding to sBCMA.
Interaction Parameters: sBCMA (1.19 mg/ml stock) was injected as analyte at 600 nM, 300 nM, 150 nM, 75 nM, 37.5 nM, 18.8 nM, and 9.4 nM with the 75 nM concentrated run twice to gage reproducibility. The association rate was monitored for 2.5 minutes. The dissociation time was 20 minutes to determine more accurate kinetics for those mAbs with slower off-rates. The data was double background referenced in that both a reference Fc and a 0 nM analyte concentration were subtracted from the data. A 1:1 Langmuir binding model with mass transfer was used from the Biacore evaluation software.

sBCMA-mAb1 = target: B2; experiment: Octet: sBCMA-mAb3 on captured sBCMA-mAb1 without BCMA (sensor blocked with irrelevant IgG)

Binder | Kd (soluble BCMA (sBCMA)) [nM] | koff (soluble BCMA (sBCMA)) [s⁻¹] | kon (soluble BCMA (sBCMA)) [M⁻¹ s⁻¹] | binding result (sBCMA-mAb1)
B1 | 4.5 | 0.00405 | 901000 | no binding (tested: not given)
B2 | 0.103 | 6.47e-05 | 630000 | –
B3 | 377 | 0.0185 | 49200 | –
